The target in one assay is full length TOP1-His (UniProt Q94AM1). Description: SEC; Superdex 200 gel filtration of cobalt-column purified His-tagged protein, no DTT; apparent MW by interpolation with conalbumin and aldolase; peak areas at A280. Background: Size exclusion chromatography separates by hydrodynamic size, large species first.
Assay [1] has as its target T1, TOP2 fused to the N-terminal or the C-terminal half of Renilla luciferase, Q949P2.
T1 chain: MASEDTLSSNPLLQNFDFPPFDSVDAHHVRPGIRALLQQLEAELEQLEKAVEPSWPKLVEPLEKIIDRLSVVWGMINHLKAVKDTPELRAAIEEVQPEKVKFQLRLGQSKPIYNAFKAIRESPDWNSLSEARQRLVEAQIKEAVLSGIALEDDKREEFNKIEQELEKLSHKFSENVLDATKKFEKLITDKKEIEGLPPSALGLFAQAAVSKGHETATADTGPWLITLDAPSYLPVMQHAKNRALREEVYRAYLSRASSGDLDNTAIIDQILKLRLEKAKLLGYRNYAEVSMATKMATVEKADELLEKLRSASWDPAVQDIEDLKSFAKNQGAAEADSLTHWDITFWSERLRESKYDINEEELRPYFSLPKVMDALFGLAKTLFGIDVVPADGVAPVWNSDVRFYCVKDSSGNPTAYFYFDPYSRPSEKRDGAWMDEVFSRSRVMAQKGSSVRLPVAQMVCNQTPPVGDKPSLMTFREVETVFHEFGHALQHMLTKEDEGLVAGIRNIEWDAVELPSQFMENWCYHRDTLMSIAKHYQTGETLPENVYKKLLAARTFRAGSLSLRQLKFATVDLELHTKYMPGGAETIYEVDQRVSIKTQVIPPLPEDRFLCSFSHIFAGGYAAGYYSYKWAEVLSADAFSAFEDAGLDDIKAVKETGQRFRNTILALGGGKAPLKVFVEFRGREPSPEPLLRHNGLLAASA
Description: split reporter (BiFC, NanoBiT); split Renilla luciferase complementation in Arabidopsis protoplasts co-transformed with NLuc and CLuc fusions; luminescence read 12-16 h after transformation; with or without 100 or 200 uM SA (3 h). To be noted: remark: other sources report otherwise.

Assay [2] has as its target T2, full length TOP2-His, Q949P2.
T2 chain: T1 chain
Description: SEC; Superdex 200 gel filtration of cobalt-column purified His-tagged protein, no DTT; apparent MW by interpolation with conalbumin and aldolase; peak areas at A280. Conditions: remark: other sources report otherwise.

For orientation: stoichiometry N means the number of molecules, sites or subunits per partner or assembly. As to “full length TOP1-His (from UniProt Q94AM1 83-791) (enzyme)”, the stoichiometry N in the assay with full length TOP1-His is 2.

B1: TOP2 fused to the N-terminal or the C-terminal half of Renilla luciferase, Q949P2 1-701 (enzyme)
chain: T1 chain
With B1, the fold luminescence intensity over TOP1-TOP1 or TOP1-TOP2 in assay [1] was found to be 3.4 fold.

B2: full length TOP2-His, Q949P2 1-701 (enzyme)
chain: T1 chain
On to B2, for which, in assay [2], the stoichiometry N turned out to be 2.

(Values after article PMC4434903.)
